# Legend:
# Assay in all cases: colorimetric ELISA
# cynomolgus EpCAM protein = target: T1, cynomolgus EpCAM protein (cynomolgus, UniProt Q1WER1 27-265 (rhesus entry), limits assumed, biotinylated in the Octet assays (site not stated))
# T1 construct: also called cy EpCAM; biotinylated cynomolgus EpCAM protein
# T1 sequence: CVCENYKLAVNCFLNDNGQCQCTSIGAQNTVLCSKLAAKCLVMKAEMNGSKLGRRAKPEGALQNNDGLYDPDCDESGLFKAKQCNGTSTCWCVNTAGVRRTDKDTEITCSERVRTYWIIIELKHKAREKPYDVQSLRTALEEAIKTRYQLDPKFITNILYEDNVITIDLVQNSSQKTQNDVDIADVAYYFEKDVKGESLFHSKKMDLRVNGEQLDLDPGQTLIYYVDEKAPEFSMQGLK
# From the text: (§1) A phage display library for expression of heavy variable antibody domains was constructed from circulating B cells. See van der Linden, de Geus, Stok, Bos, van Wassenaar, Verrips, and Frenken. 2000. J Immunol Methods 240:185-195.
# human EpCAM protein = target: T2, human EpCAM protein (human, UniProt P16422 24-265, biotinylated in the Octet assays (site not stated))
# T2 construct: also called hu EpCAM; biotinylated human EpCAM protein
# T2 sequence: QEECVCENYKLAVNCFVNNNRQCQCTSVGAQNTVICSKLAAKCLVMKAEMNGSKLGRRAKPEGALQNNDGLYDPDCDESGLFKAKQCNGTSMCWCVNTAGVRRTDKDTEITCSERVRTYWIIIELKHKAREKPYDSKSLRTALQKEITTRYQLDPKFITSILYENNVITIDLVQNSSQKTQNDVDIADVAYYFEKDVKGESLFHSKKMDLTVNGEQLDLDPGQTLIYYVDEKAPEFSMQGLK
# From the text: as §1
# [1] = target: cynomolgus EpCAM protein (cynomolgus)
Cynomolgus EpCAM/Control (cynomolgus EpCAM protein),Human EpCAM/Control (human EpCAM protein),Cynomolgus EpCAM/Control [1],Binder
8,8,–,EPL125 (VHH) VHH: QVQLQESGGGLVQAGGSLRLSCAASGNVFRAATMAWYRQVPEKQREMVATIASGGTTNYADFVKGRFTISRDNAKNTVYLQMNTLKPEDTAVYYCNALYLTSLGPKSYWGQGTQVTVSS
27,14,–,EPL57 (VHH) VHH: QVQLQESGGGLVHTGGSLRLSCAFSGDTFLRYAMGWFRQAPGKEREFVAAITWNGGNTDYADSLKGRFTISRDNTKNTVYLQMNSLRPEDTAVYYCAADLTFGLASSHYQYDYWGQGTQVTVSS
13,9,–,EPL136 (VHH) VHH: QVQLQESGGGLVQPGGSLRLSCAASGDTFLRYAMGWFRQAPGKEREFVAAITWNGGNTDYAGSLKGRFTISRDNTKNTVYLQMNSLKPEDTAVYYCAADLTFGLASSHYQYDYWGQGTQVTVSS
–,–,2,EPL159 (VHH) VHH: QVQLQESGGGLVQAGGSLRLSCAASGFAFGNHWMYWYRQAPGRGRELVASISSGGSTNYVDSVKGRFTISRDNARNTVYLQMYSLKPEDTAVYYCGTSDNWGQGTQVTVSS
29,20,–,EPL129 (VHH) VHH: QVQLQESGGGLVQAGGSLRLSCAASGFAFGNHWMYWYRQAPGRGRELVASISSGGSTNYVDSVKGRFTISRDNARNTVYLQMYSLRPEDTAVYYCGTSDNWGQGTQVTVSS
–,3,2,EPL145 (VHH) VHH: QVQLQESGGGLVQAGGSLRLSCAASGFIFRAASMGWFRQSPGNERELVATVSSGGFTNYADSVKGRFTISRDNAKNTVYLQMNSLKPEDTAVYFCGATFVRSDGHHTIYGQGTQVTVSS
21,31,–,EPL153 (VHH) VHH: QVQLQESGGGLVQPGGSLRLSCAASGFTFSDWAMSWVRQAPGKGLEWVSSIHYGDHTTHYADFVKGRFTISRDDAKNTLYLQMNSLKPEDTAVYYCEKGTTRGQGTQVTVSS
17,16,–,EPL156 (VHH) VHH: QVQLQESGGGLVQPGASLRVSCAASEYILSMYRMAWYRQAPGKVRELVADMSSGGTTNYADFVKGRFTISRDNDRNTVYLQMNRLQPEDTAAYYCNVAGRTGPPSYDAFNNWGQGTQVTVSS

# The next lines start with the binder.
Binder,Cynomolgus EpCAM/Control (cynomolgus EpCAM protein),Human EpCAM/Control (human EpCAM protein),Cynomolgus EpCAM/Control [1]
EPL20 (VHH) VHH: QVQLQESGGGLVQAGGSLKLSCAASGNVFRAATMAWYRQAPEKQREMVATIASGGTTNYADFVKGRFTISRDNAKNTVYLQMNTLKPEDTAVYYCNAGYLTSLGPKNYWGQGTQVTVSS,4,6,–
EPL13 (VHH) VHH: QVQLQESGGGLVQPGGSLRLSCAASGFAFGNHWMYWYRQAPGRGRELVASISSGGSTNYVDSVKGRFTISRDNARNTVYLQMYSLKPEDTAVYYCGTSDNWGQGTQVTVSS,23,17,–
EPL86 (VHH) VHH: QVQLQESGGGLVQPGGSLRLSCAASGFTFSDWAMSWVRQAPGKGLEWVSGIHYGDHTTHYADFVKGRFTISRDDAKNTLYLQMNSLKPEDTAVYYCARGSTKGQGTQVTVSS,31,8,–
EPL60 (VHH) VHH: QVQLQESGGGLVQAGGSLRLSCAASEYILSMYRMAWYRQAPGKVRELVADMSSGGTTNYADFVKGRFTISRDNDRNTVYLQMNRLQPEDTAAYYCNVAGRTGPPSYDAFNNWGQGTQVTVSS,33,10,–
EPL15 (VHH) VHH: QVQLQESGGGSVLAGGSLRLSCAASGFTFSSYYMSWVRQAPGKGLEWVSGIHYTGDWTNYADSVKGRFTISRDNAKNELYLEMNNLKPEDTAVYYCARGSDKGQGTQVTVSS,35,8,–
EPL34 (VHH) VHH: QVQLQESGGGSVQAGGSLRLSCAASGFTFSSYYMSWVRQAPGKGLEWVSGIHYTGDWTNYADSVKGRFTISRDNAKNELYLEMNNLKPEDTAVYYCARGSDKGQGTQVTVSS,36,10,–
